Sequences and labels used below:
B1: TPR t1 (parent)
chain: GACCAAUCUGCCCUCAGAGCUCGAGAACAUCUUCGGAUGCAGAGGAGGCAGGCUUCGGUGGCGCGAUAGCGCCAACGUCCUCAACCUCCAAUGCAUCCCACCACAUGAUGAUGCCUGAAGAGCCUUGGUUUUUUG

In this data set the parent is B1. Description: polymerase ribozyme fitness, log enrichment relative to wild type (log ratio); higher = more active; in vitro selection for triplet polymerase activity. The method in brief:
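Both subunits of a heterodimeric triplet polymerase ribozyme were given their own mutant library, built by PCR and transcribed. Each library was annealed with a biotinylated primer, the partner subunit and triplets, incubated frozen at −7 °C, and its extended constructs gel-excised, captured on streptavidin beads and amplified by RT-PCR, all in one round done in triplicate. Fitness is the logarithm of genotype enrichment relative to wild-type enrichment, with replicates averaged by inverse-variance weighting. That logarithm is base 2, and Illumina-sequenced genotypes needed ≥10 input reads and ≥1 read per output.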
C82A U125A: the “polymerase ribozyme fitness (log ratio)” value was -0.778.

Turning to U81C C123A, the “polymerase ribozyme fitness (log ratio)” value is -0.309. With C82U G120U, the “polymerase ribozyme fitness (log ratio)” value stood at 0.312. With C88U U116C G120C the figure was -0.613. With C80U C101U G128A the figure was -2.13; with C88U C115A, -0.441; with U81A A90C U92C, -4.05.

For the variant C85A A95C, the “polymerase ribozyme fitness (log ratio)” value was -2.61. With U92C U125G the figure was -1.76; with G93A A118U U133A, 0.0816; with A83G G110A, -1.35. As for U81A A121C, the figure is 0.745; as for C82A C99U, -4.04; as for A91C U133A, -0.906. With A84U C88U G93A G128A the figure was -2; with U87A C88A G110U G127A, -3.99.

In the case of A84U G93A, the “polymerase ribozyme fitness (log ratio)” value is -1.11. Consider A84U G93U, for which the “polymerase ribozyme fitness (log ratio)” value was -1.44. For the variant C85U A108U C123G, the “polymerase ribozyme fitness (log ratio)” value is -6.32. C89G C124A: the “polymerase ribozyme fitness (log ratio)” value came to 0.877. As for C82A G120U, the figure is 0.156; as for U81C C82A C98U, -3.03. For the variant A83U C89U U96C U131G, the “polymerase ribozyme fitness (log ratio)” value is -1.02. With U81A C89U the figure was -0.112; with A91G G93C G120C, -2.18. With C82A G93C C97U G113U the figure was -4.46; with U81G A118U, -2.58; with U81G U112A, -4.16. With A91U G128U the figure was -3.95. As to C82G G120U, the “polymerase ribozyme fitness (log ratio)” value was -0.592.

Take C82G G120A: the “polymerase ribozyme fitness (log ratio)” value is -0.124. As for A90G A119U, the figure is 0.257; as for U92A C104U, -3.56; as for A90C C102U, -4.08.

On to C82U U96G, for which the “polymerase ribozyme fitness (log ratio)” value was -1.12. As for C86U U131G, the figure is -0.498.

U92A C101A: the “polymerase ribozyme fitness (log ratio)” value is -3.47. As for C88G C94A A111C U133A, the figure is -3.52. With C89G U126A the figure was -2.85; with A83C C97A, -3.66.

In the case of C89U C101A, the “polymerase ribozyme fitness (log ratio)” value was -1.39. Take U92C U106G G135C: the “polymerase ribozyme fitness (log ratio)” value is -3.67. With U87C C99U U129G, the “polymerase ribozyme fitness (log ratio)” value was -3.62.

Consider C88U C104U, for which the “polymerase ribozyme fitness (log ratio)” value turned out to be 0.689. C89A G128C: the “polymerase ribozyme fitness (log ratio)” value is -4.25. In the case of A83G A84U C102A U112A G127U, the “polymerase ribozyme fitness (log ratio)” value is -3.04. Turning to C82U U112A, the “polymerase ribozyme fitness (log ratio)” value came out at 1.08. For G93A C102A, the “polymerase ribozyme fitness (log ratio)” value was -1.81.

With G93A C102U, the “polymerase ribozyme fitness (log ratio)” value is -2.73. With C89U G117A U129A the figure was -3.55. As for C89U C104A, the figure is -1.84; as for A83U C114A, -1.1; as for A91U G120U, -1.93.

Consider C80U G113U, for which the “polymerase ribozyme fitness (log ratio)” value is -3.41. With U87A A111G G127C U131A the figure was -3.23.

On to C86A C101U, for which the “polymerase ribozyme fitness (log ratio)” value is -0.0895.

On to C88A G113C G122A U129A, for which the “polymerase ribozyme fitness (log ratio)” value was -5.29. With C85U U109G the figure was -5.2. For C80U C123A, the “polymerase ribozyme fitness (log ratio)” value was -0.37.

Turning to A84C C98U, the “polymerase ribozyme fitness (log ratio)” value is -1.5. As for C89G C123G, the figure is 0.45. A90U G113A G128A: the “polymerase ribozyme fitness (log ratio)” value is -3.47. For the variant C82A C94A C104A, the “polymerase ribozyme fitness (log ratio)” value was -3.13. With A83C A84C the figure was -0.925; with C89A C114U, -0.329; with C89A C114G, -2.82.

On to C86G A111G G135A, for which the “polymerase ribozyme fitness (log ratio)” value was -0.134. Consider U92A A118U, for which the “polymerase ribozyme fitness (log ratio)” value was -1.95. With U81A A91U C101U the figure was -3.43; with C86G U112A G117U G120A U126A, -5.82. Turning to C85A G113A A121C, the “polymerase ribozyme fitness (log ratio)” value was -2.05.

As to C89A G117U, the “polymerase ribozyme fitness (log ratio)” value is -4.53. As for C89A G117A, the figure is -1.73; as for C89A G117C, -4.96; as for C89A G93A, -2.99. With A84U A90U the figure was -1.49; with C85U U133A, -0.839; with A83C A84C A119G, 0.957.

A91C C114U G127A: the “polymerase ribozyme fitness (log ratio)” value is -4.1.

Consider G93A G135C, for which the “polymerase ribozyme fitness (log ratio)” value is -1. For G93A C114A G122A U131A, the “polymerase ribozyme fitness (log ratio)” value was -3.27. As for C89G U109G, the “polymerase ribozyme fitness (log ratio)” value was -5.16. C89G U109A: the “polymerase ribozyme fitness (log ratio)” value is -5.37. As for A84U U112C, the figure is 1.2; as for C88U A105G C123U, -1.46. With U87A C102U C104A the figure was -1.05. In the case of U92C A118U, the “polymerase ribozyme fitness (log ratio)” value is -0.718. With U92G G122U C124U U126C the figure was -5.41. As for C82G A90G A91G C101G, the figure is -2.95; as for U81A G113C U130G U132A, -3.31; as for U87G U129C, 0.0365.

Regarding C88U G120U U126G, the “polymerase ribozyme fitness (log ratio)” value is -3.22. Take A84G G122A: the “polymerase ribozyme fitness (log ratio)” value was -1.44. In the case of U87A G110C, the “polymerase ribozyme fitness (log ratio)” value was -3.47. As for C82G A84G, the figure is -0.89. C86G G93A G113C: the “polymerase ribozyme fitness (log ratio)” value is -4.01.

For A90C G120U, the “polymerase ribozyme fitness (log ratio)” value was -1.31. With C88A C94A G117C the figure was -5.02. As for C85A G117A, the figure is -2.97; as for G93A, -0.498; as for A90U G117C, -1.43.

Turning to C85U G113C C114A, the “polymerase ribozyme fitness (log ratio)” value is -5.96. With G93A A100G U112C U131A, the “polymerase ribozyme fitness (log ratio)” value was -2.69. Regarding U81A G120A, the “polymerase ribozyme fitness (log ratio)” value was -0.668. With A90U U133G the figure was -1.46; with C88A C94G U112C G120C, -1.09; with C82U A95G, 0.358. As for U87G U92A G110A, the figure is -4.75; as for U81G G120U, -3.76. Turning to C85G U131A, the “polymerase ribozyme fitness (log ratio)” value is -1.92. C85U C94U: the “polymerase ribozyme fitness (log ratio)” value was -1.2.

For A83G G120C, the “polymerase ribozyme fitness (log ratio)” value turned out to be 0.655. With A83G G120A the figure was 0.774.

For U87A C123A, the “polymerase ribozyme fitness (log ratio)” value worked out at 0.223.

As for C82G C88G, the “polymerase ribozyme fitness (log ratio)” value was -1.26. Regarding U92C G120U, the “polymerase ribozyme fitness (log ratio)” value turned out to be 0.184. Regarding C88A U106A U109A U126A U131G, the “polymerase ribozyme fitness (log ratio)” value was -5.92. As for C80U C101U A111U U116A, the figure is -4.81; as for C86A C98U, -0.468; as for C86U C102A U112A C114A, -4.14.

A83C U126C: the “polymerase ribozyme fitness (log ratio)” value was -1.26. As for A83C C89U A95C, the “polymerase ribozyme fitness (log ratio)” value was -0.794.

For the variant C82U A90U C97U A118G, the “polymerase ribozyme fitness (log ratio)” value was -2.4.

Take U87C C89G: the “polymerase ribozyme fitness (log ratio)” value was -1.1.

As for A91C U129A, the “polymerase ribozyme fitness (log ratio)” value is -2.78. In the case of C85G G128A, the “polymerase ribozyme fitness (log ratio)” value was -2.55. With U87C U96A the figure was 0.252. As for U87C U126G, the figure is -1.22. As for C80U G128C, the figure is -3.33.

Consider C89A C101A G117A, for which the “polymerase ribozyme fitness (log ratio)” value was -5.

On to C86A U116G, for which the “polymerase ribozyme fitness (log ratio)” value was -2.89. As for A84U C123A, the figure is -0.143. With C85U U112A the figure was 0.416; with U92C U112A, -0.53. Turning to A90C C104A, the “polymerase ribozyme fitness (log ratio)” value was -3.78.

In the case of C85U G120U, the “polymerase ribozyme fitness (log ratio)” value worked out at 0.655. As for C85U G120C, the figure is 0.93. With U92G G93C the figure was -3.76; with G93A U96A, -1.69; with U87A U106G, -1.35. As for A91G G117U, the figure is -3.4; as for C89G U125A, -2.07; as for C89G A90G G127C, -2.22. With C88U C89A A121U G122A, the “polymerase ribozyme fitness (log ratio)” value is -1.15.

A83U G113C G120U U132A: the “polymerase ribozyme fitness (log ratio)” value is -4.48.

On to A83C C101A, for which the “polymerase ribozyme fitness (log ratio)” value is -1.18. Take U87A C99U: the “polymerase ribozyme fitness (log ratio)” value was -3.14. Consider C88G G117C, for which the “polymerase ribozyme fitness (log ratio)” value was -4.47. As to C80U G120U U129G, the “polymerase ribozyme fitness (log ratio)” value is -0.816. Take C89A G113C: the “polymerase ribozyme fitness (log ratio)” value is -1.8. As for G93A G110U, the figure is -2.04. Consider U87G C94A G120U, for which the “polymerase ribozyme fitness (log ratio)” value is -0.366.

Regarding A83U U133G, the “polymerase ribozyme fitness (log ratio)” value is -0.873. As for C82G C85A A111G G113U U130G, the “polymerase ribozyme fitness (log ratio)” value is -4.27. For the variant C89U A108G C114U, the “polymerase ribozyme fitness (log ratio)” value is -4.44. With C82G G113A, the “polymerase ribozyme fitness (log ratio)” value was -1.04. With C85G A111C the figure was -3.12. With U81A U112A the figure was 0.19; with U81A U112G, -0.661; with A84G G120A, -0.185.

For C86A A95G, the “polymerase ribozyme fitness (log ratio)” value was -0.915.

Take U92C G117A: the “polymerase ribozyme fitness (log ratio)” value was -2.67.

Take C89A G93A G120A: the “polymerase ribozyme fitness (log ratio)” value is -1.81. C88U C94U: the “polymerase ribozyme fitness (log ratio)” value was -1.32. As for U92A G93C, the figure is -2.69. With C89A A121G, the “polymerase ribozyme fitness (log ratio)” value was determined as 1.44. With C85U G113U the figure was -3.63.

The values are drawn from the RNAGym collection of RNA variant scans (doi:10.1073/pnas.2313332121).
